Assay results: patent US20260015399A1 (Boehringer Ingelheim, published 2026)
*1 amine or outer side, *2 acyl side, *3 side chain or, on linkers, in order; H or OH if unused. Side-chain parts run from the residue outwards. The star is where a group is joined. C18 diacid = O=C(O)CCCCCCCCCCCCCCCCC(=O)*; γGlu = O=C(O)[C@H](CCC(=O)[*:2])N[*:1]; Isovaleryl = CC(C)CC(=O)*; Ahx = NCCCCCC(=O)O

T1: human NPY2 receptor (human, UniProt P49146 1-381)
T1 sequence (looked up): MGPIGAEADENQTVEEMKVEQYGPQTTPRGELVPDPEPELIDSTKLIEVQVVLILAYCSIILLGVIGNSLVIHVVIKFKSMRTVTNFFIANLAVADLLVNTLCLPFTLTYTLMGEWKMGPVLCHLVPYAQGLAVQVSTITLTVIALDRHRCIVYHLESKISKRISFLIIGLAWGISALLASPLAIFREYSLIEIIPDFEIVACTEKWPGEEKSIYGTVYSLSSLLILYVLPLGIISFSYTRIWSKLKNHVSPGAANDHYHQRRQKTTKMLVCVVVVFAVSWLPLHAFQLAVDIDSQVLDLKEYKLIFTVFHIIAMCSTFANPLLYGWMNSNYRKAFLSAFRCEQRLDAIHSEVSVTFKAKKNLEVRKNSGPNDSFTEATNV

T2: human NPY5 receptor (human, UniProt Q15761 1-445)
T2 sequence (looked up): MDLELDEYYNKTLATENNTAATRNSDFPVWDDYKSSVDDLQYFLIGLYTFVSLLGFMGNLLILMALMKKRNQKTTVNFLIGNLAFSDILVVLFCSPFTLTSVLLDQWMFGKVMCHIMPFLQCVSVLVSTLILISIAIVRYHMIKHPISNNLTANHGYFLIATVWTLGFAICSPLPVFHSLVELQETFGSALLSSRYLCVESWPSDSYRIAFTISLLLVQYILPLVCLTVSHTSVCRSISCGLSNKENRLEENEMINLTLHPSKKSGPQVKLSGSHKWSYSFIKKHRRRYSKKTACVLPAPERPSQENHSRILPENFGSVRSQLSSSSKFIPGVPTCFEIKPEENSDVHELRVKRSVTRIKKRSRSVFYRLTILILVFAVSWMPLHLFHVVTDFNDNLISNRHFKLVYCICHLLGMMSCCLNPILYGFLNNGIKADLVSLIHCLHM

B1: Compound 12 (peptide)
peptide: Isovaleryl-APEK([Ahx-γGlu-C18 diacid])PEEDASPEELQQYYVSLRHYYHWLTRQRY-NH2
SMILES: CC(C)CC(=O)N[C@@H](C)C(=O)N1CCC[C@H]1C(=O)N[C@@H](CCC(=O)O)C(=O)N[C@@H](CCCCNC(=O)CCCCCNC(=O)CC[C@H](NC(=O)CCCCCCCCCCCCCCCCC(=O)O)C(=O)O)C(=O)N1CCC[C@H]1C(=O)N[C@@H](CCC(=O)O)C(=O)N[C@@H](CCC(=O)O)C(=O)N[C@@H](CC(=O)O)C(=O)N[C@@H](C)C(=O)N[C@@H](CO)C(=O)N1CCC[C@H]1C(=O)N[C@@H](CCC(=O)O)C(=O)N[C@@H](CCC(=O)O)C(=O)N[C@@H](CC(C)C)C(=O)N[C@@H](CCC(N)=O)C(=O)N[C@@H](CCC(N)=O)C(=O)N[C@@H](Cc1ccc(O)cc1)C(=O)N[C@@H](Cc1ccc(O)cc1)C(=O)N[C@H](C(=O)N[C@@H](CO)C(=O)N[C@@H](CC(C)C)C(=O)N[C@@H](CCCNC(=N)N)C(=O)N[C@@H](Cc1c[nH]cn1)C(=O)N[C@@H](Cc1ccc(O)cc1)C(=O)N[C@@H](Cc1ccc(O)cc1)C(=O)N[C@@H](Cc1c[nH]cn1)C(=O)N[C@@H](Cc1c[nH]c2ccccc12)C(=O)N[C@@H](CC(C)C)C(=O)N[C@H](C(=O)N[C@@H](CCCNC(=N)N)C(=O)N[C@@H](CCC(N)=O)C(=O)N[C@@H](CCCNC(=N)N)C(=O)N[C@@H](Cc1ccc(O)cc1)C(N)=O)[C@@H](C)O)C(C)C
B2: Compound 14 (peptide)
peptide: Isovaleryl-APEK([Ahx-γGlu-C18 diacid])PPEDASPEELQRYYVSLRHYYNWLTRQRY-NH2
SMILES: CC(C)CC(=O)N[C@@H](C)C(=O)N1CCC[C@H]1C(=O)N[C@@H](CCC(=O)O)C(=O)N[C@@H](CCCCNC(=O)CCCCCNC(=O)CC[C@H](NC(=O)CCCCCCCCCCCCCCCCC(=O)O)C(=O)O)C(=O)N1CCC[C@H]1C(=O)N1CCC[C@H]1C(=O)N[C@@H](CCC(=O)O)C(=O)N[C@@H](CC(=O)O)C(=O)N[C@@H](C)C(=O)N[C@@H](CO)C(=O)N1CCC[C@H]1C(=O)N[C@@H](CCC(=O)O)C(=O)N[C@@H](CCC(=O)O)C(=O)N[C@@H](CC(C)C)C(=O)N[C@@H](CCC(N)=O)C(=O)N[C@@H](CCCNC(=N)N)C(=O)N[C@@H](Cc1ccc(O)cc1)C(=O)N[C@@H](Cc1ccc(O)cc1)C(=O)N[C@H](C(=O)N[C@@H](CO)C(=O)N[C@@H](CC(C)C)C(=O)N[C@@H](CCCNC(=N)N)C(=O)N[C@@H](Cc1c[nH]cn1)C(=O)N[C@@H](Cc1ccc(O)cc1)C(=O)N[C@@H](Cc1ccc(O)cc1)C(=O)N[C@@H](CC(N)=O)C(=O)N[C@@H](Cc1c[nH]c2ccccc12)C(=O)N[C@@H](CC(C)C)C(=O)N[C@H](C(=O)N[C@@H](CCCNC(=N)N)C(=O)N[C@@H](CCC(N)=O)C(=O)N[C@@H](CCCNC(=N)N)C(=O)N[C@@H](Cc1ccc(O)cc1)C(N)=O)[C@@H](C)O)C(C)C
B3: Compound 23 (peptide)
peptide: Isovaleryl-APEK([Ahx-γGlu-C18 diacid])PEEEASPEELQRYYVSLRHYYNWLTRQRY-NH2
SMILES: CC(C)CC(=O)N[C@@H](C)C(=O)N1CCC[C@H]1C(=O)N[C@@H](CCC(=O)O)C(=O)N[C@@H](CCCCNC(=O)CCCCCNC(=O)CC[C@H](NC(=O)CCCCCCCCCCCCCCCCC(=O)O)C(=O)O)C(=O)N1CCC[C@H]1C(=O)N[C@@H](CCC(=O)O)C(=O)N[C@@H](CCC(=O)O)C(=O)N[C@@H](CCC(=O)O)C(=O)N[C@@H](C)C(=O)N[C@@H](CO)C(=O)N1CCC[C@H]1C(=O)N[C@@H](CCC(=O)O)C(=O)N[C@@H](CCC(=O)O)C(=O)N[C@@H](CC(C)C)C(=O)N[C@@H](CCC(N)=O)C(=O)N[C@@H](CCCNC(=N)N)C(=O)N[C@@H](Cc1ccc(O)cc1)C(=O)N[C@@H](Cc1ccc(O)cc1)C(=O)N[C@H](C(=O)N[C@@H](CO)C(=O)N[C@@H](CC(C)C)C(=O)N[C@@H](CCCNC(=N)N)C(=O)N[C@@H](Cc1c[nH]cn1)C(=O)N[C@@H](Cc1ccc(O)cc1)C(=O)N[C@@H](Cc1ccc(O)cc1)C(=O)N[C@@H](CC(N)=O)C(=O)N[C@@H](Cc1c[nH]c2ccccc12)C(=O)N[C@@H](CC(C)C)C(=O)N[C@H](C(=O)N[C@@H](CCCNC(=N)N)C(=O)N[C@@H](CCC(N)=O)C(=O)N[C@@H](CCCNC(=N)N)C(=O)N[C@@H](Cc1ccc(O)cc1)C(N)=O)[C@@H](C)O)C(C)C
B4: Compound 16 (peptide)
peptide: Isovaleryl-APEK([Ahx-γGlu-C18 diacid])PEEDATPEELQKYYVSLRHYYNWLTRQRY-NH2
SMILES: CC(C)CC(=O)N[C@@H](C)C(=O)N1CCC[C@H]1C(=O)N[C@@H](CCC(=O)O)C(=O)N[C@@H](CCCCNC(=O)CCCCCNC(=O)CC[C@H](NC(=O)CCCCCCCCCCCCCCCCC(=O)O)C(=O)O)C(=O)N1CCC[C@H]1C(=O)N[C@@H](CCC(=O)O)C(=O)N[C@@H](CCC(=O)O)C(=O)N[C@@H](CC(=O)O)C(=O)N[C@@H](C)C(=O)N[C@H](C(=O)N1CCC[C@H]1C(=O)N[C@@H](CCC(=O)O)C(=O)N[C@@H](CCC(=O)O)C(=O)N[C@@H](CC(C)C)C(=O)N[C@@H](CCC(N)=O)C(=O)N[C@@H](CCCCN)C(=O)N[C@@H](Cc1ccc(O)cc1)C(=O)N[C@@H](Cc1ccc(O)cc1)C(=O)N[C@H](C(=O)N[C@@H](CO)C(=O)N[C@@H](CC(C)C)C(=O)N[C@@H](CCCNC(=N)N)C(=O)N[C@@H](Cc1c[nH]cn1)C(=O)N[C@@H](Cc1ccc(O)cc1)C(=O)N[C@@H](Cc1ccc(O)cc1)C(=O)N[C@@H](CC(N)=O)C(=O)N[C@@H](Cc1c[nH]c2ccccc12)C(=O)N[C@@H](CC(C)C)C(=O)N[C@H](C(=O)N[C@@H](CCCNC(=N)N)C(=O)N[C@@H](CCC(N)=O)C(=O)N[C@@H](CCCNC(=N)N)C(=O)N[C@@H](Cc1ccc(O)cc1)C(N)=O)[C@@H](C)O)C(C)C)[C@@H](C)O
B5: Compound 15 (peptide)
peptide: Isovaleryl-APEK([Ahx-γGlu-C18 diacid])PEEDASPEEIQQYYVSLRHYYNWLTRQRY-NH2
SMILES: CC[C@H](C)[C@H](NC(=O)[C@H](CCC(=O)O)NC(=O)[C@H](CCC(=O)O)NC(=O)[C@@H]1CCCN1C(=O)[C@H](CO)NC(=O)[C@H](C)NC(=O)[C@H](CC(=O)O)NC(=O)[C@H](CCC(=O)O)NC(=O)[C@H](CCC(=O)O)NC(=O)[C@@H]1CCCN1C(=O)[C@H](CCCCNC(=O)CCCCCNC(=O)CC[C@H](NC(=O)CCCCCCCCCCCCCCCCC(=O)O)C(=O)O)NC(=O)[C@H](CCC(=O)O)NC(=O)[C@@H]1CCCN1C(=O)[C@H](C)NC(=O)CC(C)C)C(=O)N[C@@H](CCC(N)=O)C(=O)N[C@@H](CCC(N)=O)C(=O)N[C@@H](Cc1ccc(O)cc1)C(=O)N[C@@H](Cc1ccc(O)cc1)C(=O)N[C@H](C(=O)N[C@@H](CO)C(=O)N[C@@H](CC(C)C)C(=O)N[C@@H](CCCNC(=N)N)C(=O)N[C@@H](Cc1c[nH]cn1)C(=O)N[C@@H](Cc1ccc(O)cc1)C(=O)N[C@@H](Cc1ccc(O)cc1)C(=O)N[C@@H](CC(N)=O)C(=O)N[C@@H](Cc1c[nH]c2ccccc12)C(=O)N[C@@H](CC(C)C)C(=O)N[C@H](C(=O)N[C@@H](CCCNC(=N)N)C(=O)N[C@@H](CCC(N)=O)C(=O)N[C@@H](CCCNC(=N)N)C(=O)N[C@@H](Cc1ccc(O)cc1)C(N)=O)[C@@H](C)O)C(C)C
B6: Compound 26 (peptide)
peptide: Isovaleryl-APAK([Ahx-γGlu-C18 diacid])PEEDATPEELQRYYVSLRHYYNWLTRQRY-NH2
SMILES: CC(C)CC(=O)N[C@@H](C)C(=O)N1CCC[C@H]1C(=O)N[C@@H](C)C(=O)N[C@@H](CCCCNC(=O)CCCCCNC(=O)CC[C@H](NC(=O)CCCCCCCCCCCCCCCCC(=O)O)C(=O)O)C(=O)N1CCC[C@H]1C(=O)N[C@@H](CCC(=O)O)C(=O)N[C@@H](CCC(=O)O)C(=O)N[C@@H](CC(=O)O)C(=O)N[C@@H](C)C(=O)N[C@H](C(=O)N1CCC[C@H]1C(=O)N[C@@H](CCC(=O)O)C(=O)N[C@@H](CCC(=O)O)C(=O)N[C@@H](CC(C)C)C(=O)N[C@@H](CCC(N)=O)C(=O)N[C@@H](CCCNC(=N)N)C(=O)N[C@@H](Cc1ccc(O)cc1)C(=O)N[C@@H](Cc1ccc(O)cc1)C(=O)N[C@H](C(=O)N[C@@H](CO)C(=O)N[C@@H](CC(C)C)C(=O)N[C@@H](CCCNC(=N)N)C(=O)N[C@@H](Cc1c[nH]cn1)C(=O)N[C@@H](Cc1ccc(O)cc1)C(=O)N[C@@H](Cc1ccc(O)cc1)C(=O)N[C@@H](CC(N)=O)C(=O)N[C@@H](Cc1c[nH]c2ccccc12)C(=O)N[C@@H](CC(C)C)C(=O)N[C@H](C(=O)N[C@@H](CCCNC(=N)N)C(=O)N[C@@H](CCC(N)=O)C(=O)N[C@@H](CCCNC(=N)N)C(=O)N[C@@H](Cc1ccc(O)cc1)C(N)=O)[C@@H](C)O)C(C)C)[C@@H](C)O

Biological target: T1, human NPY2 receptor
Experiment: cell-based or functional assay

Row | EC50, HTRF cAMP Gi assay | Binder
1 | 0.25 nM | B1
2 | 0.086 nM | B2
3 | 0.181 nM | B3
4 | 0.31 nM | B4
5 | 0.14 nM | B5
6 | 0.108 nM | B6

Biological target: T2, human NPY5 receptor
Experiment: cell-based or functional assay

Row | EC50, HTRF cAMP Gi assay | Binder
7 | > 5000 nM | B1
8 | > 5000 nM | B2
9 | > 5000 nM | B3
10 | > 5000 nM | B4
11 | > 5000 nM | B5
12 | > 5000 nM | B6

Biological target: T1, human NPY2 receptor
Experiment: RLB: displacement of 125I-PYY(1-36) from hNPY2R membranes

Row | Ki | Binder
13 | 4.16 nM | B1
14 | 1.28 nM | B2
15 | 12.6 nM | B3
16 | 2.81 nM | B4
17 | 3.98 nM | B5
18 | 5.64 nM | B6
